Here are results for four molecules from patent US20140286952A1 (BOARD OF SUPERVISORS FOR THE UNIVERSITY OF LOUISIA SYSTEM …, published 2014).

Assay [1] concerns the target zonula occludens-1 (ZO-1), endogenous protein of prostate cancer cells and tumor specimens (UniProt Q07157). Put plainly: in situ proximity ligation assay in PC-3CTRwt cells, 50 nM CT for 30 seconds.
For assay [2] the target is unchanged. As to the kind of experiment: cell-based or functional assay.
Assay [3] concerns the target T1, zonula occludens-1 (ZO-1), endogenous protein of prostate cancer cells and tumor specimens (UniProt Q07157 1-1748, limits assumed).
T1 construct: whole, on cells; Intracellular protein; detected in cell lysates or fixed cells with anti-ZO-1 serum; The cells and tissues are human; also called tight junction protein 1; TJP-1
As to the kind of experiment: in situ proximity ligation assay in PC-3CTRΔESS cells.

Assay [4] concerns the target T2, ZO-1wt-YFP (wild-type ZO-1 fused to yellow fluorescent protein, ZO-1wt-EYFP-N1) (UniProt Q07157 1-1748).
T2 construct: whole, on cells; also called ZO-wt-YFP; ZO-1-YFP; not shown: EYFP of the EYFP-N1 plasmid
Put plainly: acceptor photobleaching FRET microscopy in live PC-31 cells.

For assay [5], the target named is T1, zonula occludens-1 (ZO-1), endogenous …. As to the kind of experiment: GST pull-down from PC-3 cell lysates, ZO-1 immunoblot.

Sequence of zonula occludens-1 (ZO-1), endogenous protein of prostate cancer cells and tumor specimens (UniProt Q07157) (Q07157 whole entry): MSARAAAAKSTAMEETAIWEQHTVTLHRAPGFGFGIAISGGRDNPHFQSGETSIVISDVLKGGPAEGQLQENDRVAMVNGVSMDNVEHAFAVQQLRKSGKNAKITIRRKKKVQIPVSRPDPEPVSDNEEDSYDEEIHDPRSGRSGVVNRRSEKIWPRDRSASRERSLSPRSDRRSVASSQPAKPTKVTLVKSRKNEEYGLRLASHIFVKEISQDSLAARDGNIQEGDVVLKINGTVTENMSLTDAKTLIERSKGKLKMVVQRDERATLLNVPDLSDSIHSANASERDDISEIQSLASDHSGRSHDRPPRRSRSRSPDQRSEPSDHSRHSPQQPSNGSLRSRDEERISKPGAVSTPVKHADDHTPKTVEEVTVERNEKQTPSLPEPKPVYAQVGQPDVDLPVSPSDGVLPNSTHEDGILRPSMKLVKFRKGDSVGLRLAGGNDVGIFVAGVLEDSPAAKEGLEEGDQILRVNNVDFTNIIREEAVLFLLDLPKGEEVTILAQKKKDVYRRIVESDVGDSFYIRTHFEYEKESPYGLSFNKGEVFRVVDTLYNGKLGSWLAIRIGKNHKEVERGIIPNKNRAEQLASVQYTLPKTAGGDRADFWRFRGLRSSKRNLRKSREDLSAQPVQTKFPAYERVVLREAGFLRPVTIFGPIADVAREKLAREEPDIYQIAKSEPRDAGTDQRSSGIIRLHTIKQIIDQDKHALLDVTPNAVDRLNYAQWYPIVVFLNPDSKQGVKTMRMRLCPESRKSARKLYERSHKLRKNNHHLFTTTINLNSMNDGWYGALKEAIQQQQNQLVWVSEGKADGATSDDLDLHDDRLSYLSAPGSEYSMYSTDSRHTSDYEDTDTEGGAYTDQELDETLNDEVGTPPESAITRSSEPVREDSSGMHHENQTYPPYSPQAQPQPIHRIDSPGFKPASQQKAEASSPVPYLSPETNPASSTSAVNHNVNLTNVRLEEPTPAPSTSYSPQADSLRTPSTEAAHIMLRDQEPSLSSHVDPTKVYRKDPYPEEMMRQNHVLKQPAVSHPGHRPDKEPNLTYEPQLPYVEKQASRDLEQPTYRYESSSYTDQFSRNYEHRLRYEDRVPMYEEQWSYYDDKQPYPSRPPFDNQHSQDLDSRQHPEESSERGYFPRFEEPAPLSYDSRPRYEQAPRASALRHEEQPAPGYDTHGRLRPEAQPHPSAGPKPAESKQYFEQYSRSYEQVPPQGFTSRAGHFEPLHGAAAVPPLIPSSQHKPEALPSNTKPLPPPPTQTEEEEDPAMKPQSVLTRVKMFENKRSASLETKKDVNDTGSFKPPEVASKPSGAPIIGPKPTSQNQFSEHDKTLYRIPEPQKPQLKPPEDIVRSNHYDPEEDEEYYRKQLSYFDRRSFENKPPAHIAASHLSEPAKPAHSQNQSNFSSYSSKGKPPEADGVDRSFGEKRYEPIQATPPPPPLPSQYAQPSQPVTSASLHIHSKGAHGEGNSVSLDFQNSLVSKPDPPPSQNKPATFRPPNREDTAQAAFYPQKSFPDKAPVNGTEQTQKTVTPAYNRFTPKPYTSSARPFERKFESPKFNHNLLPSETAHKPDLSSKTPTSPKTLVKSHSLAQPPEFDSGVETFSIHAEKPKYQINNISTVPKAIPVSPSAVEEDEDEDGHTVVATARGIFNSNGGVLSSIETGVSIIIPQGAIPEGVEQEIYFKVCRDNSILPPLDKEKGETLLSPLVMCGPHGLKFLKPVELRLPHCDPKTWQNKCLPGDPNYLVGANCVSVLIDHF
T1 sequence (Q07157 whole entry): as above
T2 sequence (Q07157 whole entry, the tested form may be a part): as the sequence (Q07157 whole entry) above

Consider “FLAG-CTRwt (full-length wild-type calcitonin receptor, FLAG-tagged, expressed in PC-3 / PC-31 cells) (from UniProt P30988 25-474)”, for which the fold increase in CTR-ZO-1 interactions (PLA dots) after CT against no CT in assay [1] worked out at 80 fold. In assay [2], this molecule showed a decrease in transepithelial electric resistance (TER) of polarized PC-3 cells of 40% and an invasion through Matrigel after 50 nM CT of 2.5 fold.

B1: FLAG-CTRΔESS (full-length calcitonin receptor with the C-terminal PDZ-binding motif ESSA replaced by AAAA, FLAG-tagged) (receptor, human, UniProt P30988 25-474, looked up)
chain: AFSNQTYPTIEPKPFLYVVGRKKMMDAQYKCYDRMQQLPAYQGEGPYCNRTWDGWLCWDDTPAGVLSYQFCPDYFPDFDPSEKVTKYCDEKGVWFKHPENNRTWSNYTMCNAFTPEKLKNAYVLYYLAIVGHSLSIFTLVISLGIFVFFRSLGCQRVTLHKNMFLTYILNSMIIIIHLVEVVPNGELVRRDPVSCKILHFFHQYMMACNYFWMLCEGIYLHTLIVVAVFTEKQRLRWYYLLGWGFPLVPTTIHAITRAVYFNDNCWLSVETHLLYIIHGPVMAALVVNFFFLLNIVRVLVTKMRETHEAESHMYLKAVKATMILVPLLGIQFVVFPWRPSNKMLGKIYDYVMHSLIHFQGFFVATIYCFCNNEVQTTVKRQWAQFKIQWNQRWGRRPSNRSARAAAAAAEAGDIPIYICHQELRNEPANNQGEESAEIIPLNIIEQAAAA
notes: whole, on cells; also called FLAG-CTR-ΔPDZ; CTRΔPDZ; not shown: FLAG tag at the 5' end of the construct
B1: in assay [3], the binding result is given as “no binding”.

B2: CTRΔESS-CFP (calcitonin receptor with ESSA replaced by AAAA, fused to cyan fluorescent protein, CTRΔESS-ECFP-N1) (receptor, human, UniProt P30988 25-474, looked up)
chain: B1 chain
notes: whole, on cells; also called CTRΔESS (CTRΔPDZ)-CFP; not shown: ECFP of the ECFP-N1 plasmid
Consider B2, for which, in assay [4], the binding result is “no binding”.

B3: GST-CTR-CΔESS fusion protein (GST fused to the intracellular C-terminal domain of CTRΔESS, aa 441-476) (other, human, UniProt P30988 441-474, looked up)
chain: YICHQELRNEPANNQGEESAEIIPLNIIEQAAAA
notes: range 441-476; also called CTR-C-ΔPDZ; not shown: GST from the pGEX vector
On to B3, for which, in assay [5], the binding result is “no binding (tested: 2 µg fusion protein)”.
